± gives the standard deviation.
Test: protein stability index of a GFP-peptide fusion (GPS, HEK-293T) (PSI 1-6); higher = more stable
[1] = treatment: DMSO, c terminus: a fixed tail appended
[2] = treatment: MLN4924 1 uM, 8 h, c terminus: a fixed tail appended
[3] = treatment: DMSO, c terminus: native
[4] = treatment: MLN4924 1 uM, 8 h, c terminus: native
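Note: 24-mer peptide tiles fused after GFP, lentivirally expressed, FACS-sorted into six equal bins by GFP/DsRed ratio, decoded by Illumina sequencing, PSI is the read-weighted mean bin number.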

Row | Sequence | protein stability index [1] | protein stability index [2] | protein stability index [3] | protein stability index [4]
1 | CEITKRRRKACQACRFTKCLRVGM [ESRRA] | 2.26 ± 0.17 | 2.32 ± 0.22 | – | –
2 | CGNIKAPSLQAWNDAPCDKTFLFI [CD207] | 2.72 ± 0.41 | 2.49 ± 0.55 | – | –
3 | CHHLPVIRQLATSGRFIVIIPRTV [SMG5] | 2.52 ± 0.6 | 2.56 ± 0.33 | – | –
4 | CISKNEWIQFNHPYTEKPRLWHTA [KLHDC2] | 2.43 ± 0.48 | 2.36 ± 0.3 | – | –
5 | CKLTCQAQALGYYYVLEPRVVDGT [ADAMTS4] | 2.86 ± 2 | 2.77 ± 1.1 | – | –
6 | CLSTWLLHFIATNYLIFSQKPEFQ [RHOBTB3] | 3.09 ± 0.19 | 3.22 ± 0.2 | – | –
7 | CMFCLYSFMPLVIKVTSATSVNLG [SLC35F2] | 2.91 ± 0.72 | 2.73 ± 0.41 | – | –
8 | CMGAMSLFLPCLLCYPPAKGCLKL [SPRY1] | 2.8 ± 0.56 | 3.04 ± 0.83 | – | –
9 | CPECYPDNPANRSLVLPWSFPLEW [TOR1AIP2] | 2.5 ± 0.28 | 2.77 ± 0.24 | – | –
10 | CQRSRYRDSLTQPDEEPMHYGNIM [RSPH3] | 3.37 ± 0.39 | 3.45 ± 0.3 | – | –
11 | CRDLVDEAKNYLLLPQERPLMQGP [KLHL20] | 2.65 ± 0.33 | 2.75 ± 0.12 | – | –
12 | CRSKTLGYQHVDLQNFSSSWSDGM [SMTNL2] | 2.47 ± 0.079 | 2.41 ± 0.27 | – | –
13 | CSRFFIDFPDILEQQRKLETYLQN [TENT5C] | 2.17 ± 0.22 | 2.24 ± 0.12 | – | –
14 | CSRPSGSSSSSGVLMVGPNFRVGK [CSNK1G1] | 3.63 ± 0.47 | 3.74 ± 0.62 | – | –
15 | CTAKCGERSVVTRDIRCSEDEKLC [ADAMTSL2] | 4.63 ± 0.38 | 4.61 ± 0.18 | – | –
16 | CTDCGKSFNHNAHLTVHKRIHTGE [ZNF8] | 4.54 ± 0.21 | 4.41 ± 0.21 | – | –
17 | CTSVNTIYDNAVQGLRRHEILQWV [LRRC59] | 2.3 ± 0.17 | 2.13 ± 0.2 | – | –
18 | CTVLRDARIRSHSWLESCIVGWRC [GMPPB] | 2.42 ± 0.39 | 1.93 ± 0.43 | – | –
19 | CVLVDTGRPIPGTSTRYEQPKCDN [SMOC2] | 3.79 ± 0.31 | 3.77 ± 0.22 | – | –
20 | CVSIPDVVGWFVLFYKPGIVLLLA [GULP1] | 2.63 ± 0.55 | 3.09 ± 0.066 | – | –
21 | CWKMLSPGFDSSVYSDLCEAAEAV [ADAMTSL2] | 2.69 ± 0.34 | 3.16 ± 0.71 | – | –
22 | DAALLEMENNHTVAITILQDDHDH [MTUS2] | 4.98 ± 0.21 | 4.92 ± 0.065 | – | –
23 | DAGGWVLIDRSGRHFGTILNYLRD [KCTD13] | 2.33 ± 0.25 | 2.08 ± 0.42 | – | –

Row | Sequence | protein stability index [1] | protein stability index [2] | protein stability index [3] | protein stability index [4]
24 | DCPMDSSSSRDTDWVVVKEPVIKV [PI4K2A] | 3.6 ± 0.4 | 4 ± 0.53 | – | –
25 | DDGYSTKDSYSSRDYPSSRDTRDY [RBMX] | 4.9 ± 0.25 | 4.77 ± 0.081 | – | –
26 | DEDDEDEDEDEDEDEDEDKEEEEE [TAF7L] | 5.46 ± 0.4 | 5.51 ± 0.1 | – | –
27 | DEEKKARRGRSPKGEFKDEEETVT [CLINT1] | 5.43 ± 0.28 | 5.57 ± 0.14 | – | –
28 | DEKDRIITAFYNEARARARANRGI [DNAJC4] | 4 ± 0.35 | 4.16 ± 0.17 | – | –
29 | DEKQRDPRIEASKVLLCHGELRSK [NET1] | 4.42 ± 0.21 | 4.63 ± 0.22 | – | –
30 | DETLRSGELLNMIVAVIDSAQLQE [INTS3] | 2.84 ± 0.18 | 3.06 ± 0.39 | – | –
31 | DFGLAARLEPLEHRRRTICGTPNY [PLK2] | 3.17 ± 0.28 | 3.13 ± 0.21 | – | –
32 | DFKDFYPAIADLFAESLQCKVDCE [P3H4] | 2.84 ± 0.4 | 3.16 ± 0.62 | – | –
33 | DFLAEKESLTEDEATQFLKQILDG [DAPK3] | 4.4 ± 0.55 | – | – | –
34 | DFMELGRSIPDTQLEQVIESQKAN [ACSBG2] | 5.16 ± 0.26 | 4.99 ± 0.26 | – | –
35 | DFRVKYETELAMRQSVENDIHGLR [KRT18] | 3.56 ± 0.2 | 3.68 ± 0.1 | – | –
36 | DFYEAMDDYTSAIEVQPNFEVPYY [TTC32] | 2.64 ± 0.23 | 2.84 ± 0.3 | – | –
37 | DGGALLGVLQYRGAELHLQPLEGG [ADAMTS4] | 2.06 ± 0.94 | 2.52 ± 0.73 | – | –
38 | DGLDGISVGSYLDTLADDVPGHQT [LURAP1L] | 5.12 ± 0.27 | 4.86 ± 0.22 | – | –
39 | DGNKIFLCHCGKAFSHKSMRDRHV [ZBTB22] | 2.39 ± 0.4 | 2.61 ± 0.56 | – | –
40 | DILEVKRLLDHQDNILSLINVNDL [WDR41] | 2.24 ± 0.4 | 2.22 ± 0.25 | – | –
41 | DILVLLGASLYAISNVCEEYIVKK [SLC35F2] | 3.41 ± 0.61 | 2.89 ± 0.47 | – | –
42 | DIRYLLGYVSQQGGQRSTPLIIAA [FEM1B] | 2.5 ± 0.41 | 2.62 ± 0.21 | – | –
43 | DLGEGKICFCCEEFQPAKCTDKEN [FAM189A2] | 4.24 ± 0.34 | 4.07 ± 0.085 | – | –
44 | DLKPENIMLLDKNVPNPRIKLIDF [DAPK3] | 2.79 ± 0.084 | 2.93 ± 0.21 | – | –
45 | DLMETTQYMNEGELRVLADTYDSV [HDAC6] | 2.69 ± 0.52 | 3.58 ± 0.51 | – | –
46 | DLVAMQWADAAGEAVPEGPDGGGP [ZSWIM9] | 4.99 ± 0.33 | 5.17 ± 0.12 | – | –

Row | Sequence | protein stability index [1] | protein stability index [2] | protein stability index [3] | protein stability index [4]
47 | DLVPKQAIQVQEADEAGWGGSGG [DLX1] | – | – | 2.96 ± 0.75 | 3.09 ± 0.087
48 | DMTFEEEAQLLQLKVKCLNNLAAS [FKBP8] | 3.42 ± 0.27 | 3.54 ± 0.46 | – | –
49 | DMWSLGCILVEMHTGEPLFSGSNE [DYRK1B] | 1.97 ± 0.33 | 2.15 ± 0.23 | – | –
50 | DNAVQGLRRHEILQWVLQTDSQQ [LRRC59] | – | – | 3.37 ± 0.2 | 3.44 ± 0.24
51 | DNIVNCNEFLCTLQKKLDNLQCLY [ZNF277] | 2.36 ± 0.39 | 2.07 ± 0.43 | – | –
52 | DPNTRPVGEKNCTGPPCDRQWTVS [ADAMTSL2] | 4.89 ± 0.15 | 4.86 ± 0.32 | – | –
53 | DPSNRSFFSEIISSVSDVKFSHSG [PPP2R2C] | 3.43 ± 0.25 | 3.44 ± 0.29 | – | –
54 | DQEGLQRITGLSPGRSALIVAVLC [SPNS1] | 2.31 ± 0.46 | 2.27 ± 0.35 | – | –
55 | DQKVPYIFRDNQWVGFDDVESFKT [CHIT1] | 3.67 ± 0.18 | 3.53 ± 0.28 | – | –
56 | DRAPAEQVPRSPVIKISYSTPQGK [PWWP2B] | 4.44 ± 0.29 | 4.52 ± 0.3 | – | –
57 | DRLQVFHKRAIMPYGVYKKQQKDP [ATE1] | 3.17 ± 0.39 | 3.34 ± 0.22 | – | –
58 | DRLRINRFAWPKVLKISYKRNNFY [EPB41L3] | 1.81 ± 0.57 | 1.69 ± 0.4 | – | –
59 | DRTAIRSDTTHLVTLGGVLRQQLV [KLHL13] | 2.61 ± 0.28 | 2.73 ± 0.22 | – | –
60 | DRVQVERDGLAEDLAALKQRLEEE [PRPH] | 5.49 ± 0.16 | 5.17 ± 0.25 | – | –
61 | DSKSGGSGSESDHTTRSSLRGPRE [DVL3] | 5.31 ± 0.27 | 5.19 ± 0.22 | – | –
62 | DSYCDALTRPEPVHEFCAGRECQP [ADAMTSL2] | 4.86 ± 0.1 | 4.57 ± 0.29 | – | –
63 | DTCPEVGFFDVLGNDRRREWAALG [ACBD3] | 3.09 ± 0.4 | 3.76 ± 0.14 | – | –
64 | DVKKLEEAGFHTVEAVAYAPKKEL [RAD51] | 4.73 ± 0.2 | 4.91 ± 0.078 | – | –
65 | DVTSLSSQLPDTPNSMVPSPVET [ISL2] | – | – | 4.24 ± 0.1 | 4.39 ± 0.34
66 | DYCKGGYHPVKIGDLFNGRYHVIR [SRPK2] | 1.99 ± 0.32 | 2.23 ± 0.25 | – | –
67 | DYLSGVLILASELSRLSVNSVTAG [TSN] | 3.54 ± 0.61 | 2.68 ± 0.4 | – | –
68 | EADGSTNNGIFQINSRRWCSNLTP [SPACA3] | 3.43 ± 0.33 | 3.66 ± 0.32 | – | –
69 | EAKNYLLLPQERPLMQGPRTRPRK [KLHL20] | 4.25 ± 0.097 | 4.17 ± 0.058 | – | –

Row | Sequence | protein stability index [1] | protein stability index [2] | protein stability index [3] | protein stability index [4]
70 | EAMFCDFPKINHGILYDEEKYKPF [CFHR2] | 2.49 ± 0.34 | 2.81 ± 0.26 | – | –
71 | EAVAGAEGREAPALVAAGGAPEDD [DENND6A] | 5.63 ± 0.16 | 5.74 ± 0.12 | – | –
72 | EAYIAKQKRLKSKLLDHDNVKYLK [GDAP1] | 3.15 ± 0.32 | 3.45 ± 0.55 | – | –
73 | ECGKAFSRSSILVQHQRVHTGEKP [ZNF24] | 3.78 ± 0.3 | 3.96 ± 0.14 | – | –
74 | ECLPENLGGYVKIDLATWNFQFLP [PTPN9] | 2.36 ± 0.33 | 2.21 ± 0.38 | – | –
75 | EDAVASADFSSMLSEEEKEELKAE [TPD52L1] | 5.59 ± 0.3 | 5.54 ± 0.63 | – | –
76 | EDGMQCLQLKETLATQEPTDNQVR [DLC1] | 5.35 ± 0.13 | 5.5 ± 0.092 | – | –
77 | EECKDRERPMYGRDSAYQSITHYR [EMD] | 4.18 ± 0.43 | 4.13 ± 0.14 | – | –
78 | EEEEGTRSPTLEPPRGRSEAPDSL [SMG5] | 5.44 ± 0.14 | 5.68 ± 0.25 | – | –
79 | EEGILVAVGQDCYTRIWSLHDARL [DCAF4] | 2.26 ± 0.3 | 2.09 ± 0.31 | – | –
80 | EEQSDQSFSSLEPDNEQLMEEVIS [IQUB] | 5.34 ± 0.27 | 5.61 ± 0.18 | – | –
81 | EETKKLANKYLVEDVLLLNFEEMR [KLHL14] | 3.23 ± 0.23 | 3.18 ± 0.27 | – | –
82 | EFDSEHNLTSNEGHSLKNLEHRLN [RASAL3] | 4.82 ± 0.49 | 4.67 ± 0.49 | – | –
83 | EFEEATGEAGWGAGEGRLGHKRKQ [FOXJ1] | 5.26 ± 0.39 | 5.19 ± 0.5 | – | –
84 | EFQERARKRIRTYLKSCRRMKKNG [NOL4L] | 3.31 ± 0.19 | 3.19 ± 0.23 | – | –
85 | EGAIVMARGRHVGSSETNLLQHLL [PYCR3] | 3.25 ± 0.78 | 3.18 ± 0.08 | – | –
86 | EGARAAGLGELGAALLQLVRRLQA [ESRRA] | 3.04 ± 0.44 | 3 ± 0.18 | – | –
87 | EGGDESDLSSESSIKKKFLKRKGK [EHMT1] | 5.54 ± 0.22 | 5.34 ± 0.56 | – | –
88 | EGHSIVGFAMYYFTYDPWIGKLLY [SAT1] | 3.07 ± 0.16 | 3.02 ± 0.99 | – | –
89 | EGKAPIISGVTKAISSPTVSRLTD [TPPP] | 4.52 ± 0.2 | 4.51 ± 0.36 | – | –
